In publication PMC8934645:

Biological target: Cas9 from Streptococcus pyogenes (SpyCas9) (Streptococcus pyogenes) (UniProt Q99ZW2)

Substance | in vitro DNA cleavage by SpyCas9 RNP (256 nM), Acr titrated 0-8192 nM: Acr concentration that inhibits SpyCas9
AcrIIA25.1 (natural protein) | 512 nM
AcrIIA28 (natural protein) | 512 nM

Now from value to substance:

in vitro DNA cleavage by SpyCas9 RNP (256 nM), Acr titrated 0-8192 nM: Acr concentration that inhibits SpyCas9 | Substance
> 2050 nM | AcrIIA26 (natural protein)
> 2050 nM | AcrIIA27 (natural protein)
512 nM | AcrIIA32.1 (natural protein)
